# Assay results from patent US20260199504A1.
# Molecular target: human Nectin-4 on Nectin4-CHOK1 cells (CHO-K1 cell strain highly expressing Nectin-4) (human) (UniProt Q96NY8)
# Test: cell-based or functional assay
# Chain of human Nectin-4 on Nectin4-CHOK1 cells (CHO-K1 cell strain highly expressing Nectin-4) (human) (Q96NY8 32-510 limits assumed): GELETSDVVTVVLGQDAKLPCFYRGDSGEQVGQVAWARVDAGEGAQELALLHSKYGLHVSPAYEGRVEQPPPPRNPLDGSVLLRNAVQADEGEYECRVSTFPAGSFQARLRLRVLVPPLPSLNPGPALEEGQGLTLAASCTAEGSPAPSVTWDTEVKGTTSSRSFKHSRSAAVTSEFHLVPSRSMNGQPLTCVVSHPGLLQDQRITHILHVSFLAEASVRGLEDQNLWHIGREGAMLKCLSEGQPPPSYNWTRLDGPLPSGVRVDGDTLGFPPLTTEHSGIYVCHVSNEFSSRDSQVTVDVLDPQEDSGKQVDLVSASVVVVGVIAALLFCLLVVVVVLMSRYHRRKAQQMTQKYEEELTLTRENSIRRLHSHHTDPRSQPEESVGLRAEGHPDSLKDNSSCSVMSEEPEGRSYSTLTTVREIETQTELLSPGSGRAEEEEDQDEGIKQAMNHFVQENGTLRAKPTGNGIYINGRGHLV
substance,measurement,value
C25-IgG1 (IgG1 isotype negative control) (antibody),"FITC-A signal value, 5 nM Ab + 15 nM pHrodo (pHrodo endocytosis assay, Nectin4-CHOK1 clone 3)",129
same,"FITC-A signal value, 20 nM Ab + 60 nM pHrodo (pHrodo endocytosis assay, Nectin4-CHOK1 clone 3)",154
